{"source": "patent US20190271705A1", "assay_in_all_cases": "fluorescence polarization in solution", "key": {"ShcA-pY239 peptide": {"target": "ShcA-pY239 peptide"}, "EGFR-pY978 peptide": {"target": "EGFR-pY978 peptide"}, "MidT-pY324 peptide": {"target": "MidT-pY324 peptide"}, "[1]": {"target": "fluorescein-GGpYGG peptide (SEQ ID NO: 23)"}}, "data": [{"substance": "T8V/C10A/K15L variant Src SH2 domain (designed binder)", "values": [{"measurement": "Kd", "setting": "ShcA-pY239 peptide", "value": 1, "unit": "nM"}, {"measurement": "Kd", "setting": "EGFR-pY978 peptide", "value": 1, "unit": "nM"}, {"measurement": "Kd", "setting": "MidT-pY324 peptide", "value": 1, "unit": "nM"}, {"measurement": "Kd", "setting": "[1]", "value": 510, "unit": "nM"}]}, {"substance": "wild-type Fyn SH2 domain (hexa-histidine-tagged construct, SEQ ID NO:4)", "values": [{"measurement": "Kd", "setting": "[1]", "value": 67000, "unit": "nM"}]}]}
